Test results published in article PMC3958441, “Isl1 and Pou4f2 Form a Complex to Regulate Target Genes in Developing Retinal Ganglion Cells” (PLoS ONE, 2014).

Experiments:
Pou4f2D5;Isl1 [1] = target: T1, Pou4f2D5;Isl1 (mouse;mouse, UniProt Q63934;P61372 125-411;1-349, |); experiment: EMSA; EMSA: 20 mM Tris-HCl pH 7.5, 50 mM NaCl, 10 mM DTT, 1 mM EDTA, 5% glycerol, 200 ng dI/dC, 200 ng each protein in 20 ul, 4 C, 30 min; 8% PAGE, 1x TBE, 4 C; settings: protein: recombinant;recombinant, tags: His (C-terminal);His (C-terminal, pET-28a), copies: 1;1
T1 sequence 1: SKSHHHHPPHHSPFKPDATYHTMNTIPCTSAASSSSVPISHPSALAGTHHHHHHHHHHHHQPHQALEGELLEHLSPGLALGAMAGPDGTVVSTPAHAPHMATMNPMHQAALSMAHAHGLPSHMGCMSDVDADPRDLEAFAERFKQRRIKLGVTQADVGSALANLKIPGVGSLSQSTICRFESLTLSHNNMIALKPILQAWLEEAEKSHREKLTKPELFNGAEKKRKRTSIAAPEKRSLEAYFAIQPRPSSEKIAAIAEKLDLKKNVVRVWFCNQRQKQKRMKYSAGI
T1 sequence 2: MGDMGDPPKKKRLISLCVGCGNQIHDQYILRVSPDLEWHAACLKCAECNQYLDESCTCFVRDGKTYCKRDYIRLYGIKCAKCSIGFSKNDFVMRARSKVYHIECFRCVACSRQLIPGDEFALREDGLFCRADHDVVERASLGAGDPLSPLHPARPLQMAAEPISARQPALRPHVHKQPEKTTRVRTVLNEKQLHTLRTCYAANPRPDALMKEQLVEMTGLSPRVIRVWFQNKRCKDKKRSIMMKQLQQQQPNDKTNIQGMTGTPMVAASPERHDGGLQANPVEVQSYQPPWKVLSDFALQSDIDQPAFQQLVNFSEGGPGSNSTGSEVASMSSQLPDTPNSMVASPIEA

Pou4f2 (Brn3b);Isl1 [2] = target: T2, Pou4f2 (Brn3b);Isl1 (mouse;mouse, UniProt Q63934;P61372 1-411;1-349, |); experiment: as above; settings: protein: recombinant;recombinant; tags: His (C-terminal, pET-28a);His (C-terminal, pET-28a); copies: 1;1; (radiolabel, Klenow fill-in); 5' overhang 1 nt at both ends before fill-in
T2 sequence 1: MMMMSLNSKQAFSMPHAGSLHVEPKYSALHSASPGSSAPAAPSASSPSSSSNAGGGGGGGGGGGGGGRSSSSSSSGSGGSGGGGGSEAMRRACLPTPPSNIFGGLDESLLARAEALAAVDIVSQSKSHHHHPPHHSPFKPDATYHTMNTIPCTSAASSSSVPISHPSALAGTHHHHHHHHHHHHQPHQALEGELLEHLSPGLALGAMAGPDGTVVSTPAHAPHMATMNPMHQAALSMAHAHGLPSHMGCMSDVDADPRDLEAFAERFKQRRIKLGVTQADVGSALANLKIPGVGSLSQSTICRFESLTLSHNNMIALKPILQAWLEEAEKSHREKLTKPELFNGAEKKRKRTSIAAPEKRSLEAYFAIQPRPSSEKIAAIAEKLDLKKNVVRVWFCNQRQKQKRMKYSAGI
T2 sequence 2: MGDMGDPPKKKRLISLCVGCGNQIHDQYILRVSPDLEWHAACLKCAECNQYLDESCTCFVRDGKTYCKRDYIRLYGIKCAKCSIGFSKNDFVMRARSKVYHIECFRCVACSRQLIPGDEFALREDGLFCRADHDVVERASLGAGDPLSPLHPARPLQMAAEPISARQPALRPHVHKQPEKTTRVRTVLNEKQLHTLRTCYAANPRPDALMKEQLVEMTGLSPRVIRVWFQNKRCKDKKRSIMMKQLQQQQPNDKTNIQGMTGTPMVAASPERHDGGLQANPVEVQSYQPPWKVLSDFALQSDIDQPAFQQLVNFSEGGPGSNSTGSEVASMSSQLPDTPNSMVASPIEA

Pou4f2D5;Isl1 [3] = target: T1, Pou4f2D5;Isl1; experiment: EMSA; ternary complex; EMSA: 20 mM Tris-HCl pH 7.5, 50 mM NaCl, 10 mM DTT, 1 mM EDTA, 5% glycerol, 200 ng dI/dC, 200 ng each protein in 20 ul, 4 C, 30 min; 8% PAGE, 1x TBE, 4 C; settings: protein: recombinant;recombinant, tags: His (C-terminal);His (C-terminal, pET-28a), copies: 1;1
Isl1D4;Pou4f2 (Brn3b) = target: T3, Isl1D4;Pou4f2 (Brn3b) (mouse;mouse, UniProt P61372;Q63934 146-349;1-411, |); experiment: as above; settings: protein: recombinant;recombinant; tags: His (C-terminal);His (C-terminal, pET-28a); copies: 1;1; (radiolabel, Klenow fill-in); 5' overhang 1 nt at both ends before fill-in
T3 sequence 1: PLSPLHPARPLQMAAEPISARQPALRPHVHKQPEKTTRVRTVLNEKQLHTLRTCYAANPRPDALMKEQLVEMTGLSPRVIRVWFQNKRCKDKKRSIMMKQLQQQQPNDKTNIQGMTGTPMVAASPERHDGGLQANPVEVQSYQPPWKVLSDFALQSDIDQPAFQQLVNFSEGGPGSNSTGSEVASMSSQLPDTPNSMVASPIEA
T3 sequence 2: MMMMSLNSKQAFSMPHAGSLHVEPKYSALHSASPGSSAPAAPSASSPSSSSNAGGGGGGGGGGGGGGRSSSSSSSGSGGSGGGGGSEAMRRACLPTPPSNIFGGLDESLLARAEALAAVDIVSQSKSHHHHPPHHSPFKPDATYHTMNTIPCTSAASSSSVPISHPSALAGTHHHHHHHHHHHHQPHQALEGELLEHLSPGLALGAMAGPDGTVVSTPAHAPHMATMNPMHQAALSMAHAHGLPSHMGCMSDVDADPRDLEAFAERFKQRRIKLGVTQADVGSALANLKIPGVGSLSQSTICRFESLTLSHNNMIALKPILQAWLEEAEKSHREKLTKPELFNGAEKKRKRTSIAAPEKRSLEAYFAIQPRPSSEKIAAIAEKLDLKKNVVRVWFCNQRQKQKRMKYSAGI

Isl1D3;Pou4f2 (Brn3b) = target: T4, Isl1D3;Pou4f2 (Brn3b) (mouse;mouse, UniProt P61372;Q63934 170-349;1-411, |); experiment: as above; settings: protein: recombinant;recombinant; tags: His (C-terminal);His (C-terminal, pET-28a); copies: 1;1; (radiolabel, Klenow fill-in); 5' overhang 1 nt at both ends before fill-in
T4 sequence 1: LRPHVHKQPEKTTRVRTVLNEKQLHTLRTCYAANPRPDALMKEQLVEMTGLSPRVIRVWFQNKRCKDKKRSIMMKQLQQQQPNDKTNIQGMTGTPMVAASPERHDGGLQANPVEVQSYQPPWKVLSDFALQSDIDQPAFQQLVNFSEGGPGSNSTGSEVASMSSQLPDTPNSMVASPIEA
T4 sequence 2: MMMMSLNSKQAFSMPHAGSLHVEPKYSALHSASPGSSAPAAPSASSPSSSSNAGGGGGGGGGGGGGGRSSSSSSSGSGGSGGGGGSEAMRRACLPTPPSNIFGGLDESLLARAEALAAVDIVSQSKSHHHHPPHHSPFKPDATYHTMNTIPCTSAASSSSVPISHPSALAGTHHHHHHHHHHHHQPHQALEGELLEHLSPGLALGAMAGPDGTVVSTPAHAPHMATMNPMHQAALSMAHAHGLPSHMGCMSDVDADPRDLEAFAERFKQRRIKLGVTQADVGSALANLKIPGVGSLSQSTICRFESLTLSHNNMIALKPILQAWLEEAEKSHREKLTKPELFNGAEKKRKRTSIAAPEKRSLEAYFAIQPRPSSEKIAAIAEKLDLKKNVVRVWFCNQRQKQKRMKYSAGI

Pou4f2 (Brn3b);Isl1 [4] = target: T2, Pou4f2 (Brn3b);Isl1; experiment: as above; settings: protein: recombinant;recombinant; tags: His (C-terminal, pET-28a);His (C-terminal, pET-28a); copies: 1;1; (radiolabel, Klenow fill-in); 5' overhang 1 nt at both ends before fill-in
Isl1D5;Pou4f2 (Brn3b) = target: T5, Isl1D5;Pou4f2 (Brn3b) (mouse;mouse, UniProt P61372;Q63934 74-349;1-411, |); experiment: as above; settings: protein: recombinant;recombinant; tags: His (C-terminal);His (C-terminal, pET-28a); copies: 1;1; (radiolabel, Klenow fill-in); 5' overhang 1 nt at both ends before fill-in
T5 sequence 1: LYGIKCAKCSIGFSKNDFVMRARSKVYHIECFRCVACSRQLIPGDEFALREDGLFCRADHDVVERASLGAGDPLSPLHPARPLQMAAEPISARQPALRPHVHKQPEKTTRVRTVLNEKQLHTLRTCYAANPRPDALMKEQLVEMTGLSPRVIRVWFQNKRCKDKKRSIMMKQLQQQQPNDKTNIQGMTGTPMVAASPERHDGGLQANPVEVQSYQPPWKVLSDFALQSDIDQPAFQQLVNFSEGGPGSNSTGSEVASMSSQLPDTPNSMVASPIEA
T5 sequence 2: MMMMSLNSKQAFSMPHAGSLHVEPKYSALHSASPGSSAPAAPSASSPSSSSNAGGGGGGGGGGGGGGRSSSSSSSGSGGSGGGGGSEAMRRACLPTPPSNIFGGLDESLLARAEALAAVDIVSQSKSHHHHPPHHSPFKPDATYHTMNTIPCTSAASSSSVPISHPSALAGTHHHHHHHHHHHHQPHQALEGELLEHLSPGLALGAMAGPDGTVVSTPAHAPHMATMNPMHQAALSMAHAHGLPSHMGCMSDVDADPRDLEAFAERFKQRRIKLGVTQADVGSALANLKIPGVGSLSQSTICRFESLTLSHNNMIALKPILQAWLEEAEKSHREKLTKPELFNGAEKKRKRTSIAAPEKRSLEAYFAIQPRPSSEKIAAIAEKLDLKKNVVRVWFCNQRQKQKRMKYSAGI

Pou4f2D4;Isl1 = target: T6, Pou4f2D4;Isl1 (mouse;mouse, UniProt Q63934;P61372 169-411;1-349, |); experiment: as above; settings: protein: recombinant;recombinant; tags: His (C-terminal);His (C-terminal, pET-28a); copies: 1;1; (radiolabel, Klenow fill-in); 5' overhang 1 nt at both ends before fill-in
T6 sequence 1: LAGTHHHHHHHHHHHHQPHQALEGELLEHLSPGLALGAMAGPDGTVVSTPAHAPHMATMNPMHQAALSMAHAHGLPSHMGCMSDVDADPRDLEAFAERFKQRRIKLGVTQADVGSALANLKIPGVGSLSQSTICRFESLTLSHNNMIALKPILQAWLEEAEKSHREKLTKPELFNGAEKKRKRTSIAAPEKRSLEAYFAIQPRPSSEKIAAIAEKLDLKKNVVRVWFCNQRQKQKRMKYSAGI
T6 sequence 2: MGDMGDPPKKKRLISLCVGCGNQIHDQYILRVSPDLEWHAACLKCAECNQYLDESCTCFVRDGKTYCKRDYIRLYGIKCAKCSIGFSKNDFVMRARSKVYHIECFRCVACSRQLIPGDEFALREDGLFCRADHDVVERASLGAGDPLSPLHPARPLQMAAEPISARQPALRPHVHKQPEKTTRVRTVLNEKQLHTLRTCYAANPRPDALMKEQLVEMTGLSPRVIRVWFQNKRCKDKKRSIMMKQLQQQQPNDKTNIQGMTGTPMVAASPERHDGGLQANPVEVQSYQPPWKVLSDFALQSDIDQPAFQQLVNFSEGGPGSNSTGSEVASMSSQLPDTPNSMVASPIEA

[5] = (radiolabel, Klenow fill-in), 5' overhang 1 nt at both ends before fill-in

B1: IRX6(M) (dsDNA)
DNA 1: TACTACTGCTTCGTTGCTTGCAAACATTTC
DNA 2: GGAAATGTTTGCAAGCAACGAAGCAGTAGTA
Pou4f2D5;Isl1 [1]; (radiolabel, Klenow fill-in), one end blunt, lower strand 5' overhang 1 nt before fill-in
  binding result: no binding

B2: SBRN3(M) (dsDNA)
DNA 1: GCACACGACCCAGCGCGTTGACAACCGGGCTG
DNA 2: GCAGCCCGGTTGTCAACGCGCTGGGTCGTGTG
Pou4f2 (Brn3b);Isl1 [2]
  binding result: no binding

B3: EBF3(M) (dsDNA)
DNA 1: GTGCGTTGCTATTTTCGTTGCTCGGGAAAA
DNA 2: TTTTCCCGAGCAACGAAAATAGCAACGCAC
Pou4f2D5;Isl1 [1]; (radiolabel, Klenow), blunt
  binding result: no binding

B4: IRX6(W) (dsDNA)
DNA 1: GTACTACTAATTAATTAATTGCAAACATTTC
DNA 2: GGAAATGTTTGCAATTAATTAATTAGTAGTA
Pou4f2D5;Isl1 [3]; [5]
  binding result: binds

B5: EBF3(W) (dsDNA)
DNA 1: GTGCGTTAATATTTTAATTAATCGGGAAAA
DNA 2: TTTTCCCGATTAATTAAAATATTAACGCAC
Pou4f2D5;Isl1 [3]; (radiolabel, Klenow), blunt
  binding result: binds

B6: CBRN3(M) (dsDNA)
DNA 1: GATCTCTCCTGCGCGGTTGACTACCCCCGGAT
DNA 2: GATCCGGGGGTAGTCAACCGCGCAGGAGAGAT
Pou4f2 (Brn3b);Isl1 [2]
  binding result: no binding

B7: SBRN3(W) (dsDNA)
DNA 1: GCACACGACCCAATGAATTAATAACCGGGCTG
DNA 2: GCAGCCCGGTTATTAATTCATTGGGTCGTGTG
Pou4f2D5;Isl1 [3]; [5]
  binding result: binds
Isl1D4;Pou4f2 (Brn3b)
  binding result: binds
Isl1D3;Pou4f2 (Brn3b)
  binding result: binds
Pou4f2 (Brn3b);Isl1 [4]
  binding result: binds
Isl1D5;Pou4f2 (Brn3b)
  binding result: binds
Pou4f2D4;Isl1
  binding result: binds

B8: CBRN3(W) (dsDNA)
DNA 1: GATCTCTCCTGCATAATTAATTACCCCCGGAT
DNA 2: GATCCGGGGGTAATTAATTATGCAGGAGAGAT
Pou4f2D5;Isl1 [3]; [5]
  binding result: binds
Isl1D4;Pou4f2 (Brn3b)
  binding result: binds
Isl1D3;Pou4f2 (Brn3b)
  binding result: binds
Pou4f2 (Brn3b);Isl1 [4]
  binding result: binds
Isl1D5;Pou4f2 (Brn3b)
  binding result: binds
Pou4f2D4;Isl1
  binding result: binds
